# Measurements reported in paper PMC3253120 (PLoS ONE, 2012).
# Target: purified recombinant BoNT/A light chain (Lc) (Clostridium botulinum)
# Assay: ELISA
# Details: both partners purified
row,Binder,binding result
1,"ciA-H11 (VHH, also called JEC-11; source: E. coli, purified as a thioredoxin fusion protein) VHH: QVQLVESGGGLVQPGGSLRLSCTASTLTLNYYAIGWFRQAPGKEREGVSCTGSSGGSTVYIDSVKGRFTVVRDNAKNMVYLQMDSLQPEDTAVYYCAADDLRCGRGWSSYFRGSWGQGTQVTVSS",binds
2,"ciA-H4 (VHH, also called JEC-3; source: E. coli, purified as a thioredoxin fusion protein) VHH: SGGGLVQSGGSLRLSCAASVLTLEYYAIGWFRQAPGKEREGISCTGSSGGSTVYIDSVKGRFTVVRDNAKNMVYLQMDSLQPEDTAVYYCAADDLRCGRGWSSYFRGSWGQGTQVTVSS",binds
3,"ciA-D1 (VHH, also called JDT-2; source: E. coli, purified as a thioredoxin fusion protein) VHH: QVQLVESGGGLVQPGGSLRLSCATSGFTLEYYAIGWFRQAPGKGREGVACMNSSGGGTNYADSVKGRFTISRDNAKKMVYLQMNSLKSEDTAVYYCVVDDFRCGSRWAAYLRSSWGQGTQVTVSS",binds
